Test results taken from patent US20230227537A1 (VIB VZW, published 2023).
Substitutions are numbered along the chain they refer to.

T1: SARS-CoV NTD (N-terminal domain) (SARS-CoV-1, UniProt P59594 14-276)
T1 sequence: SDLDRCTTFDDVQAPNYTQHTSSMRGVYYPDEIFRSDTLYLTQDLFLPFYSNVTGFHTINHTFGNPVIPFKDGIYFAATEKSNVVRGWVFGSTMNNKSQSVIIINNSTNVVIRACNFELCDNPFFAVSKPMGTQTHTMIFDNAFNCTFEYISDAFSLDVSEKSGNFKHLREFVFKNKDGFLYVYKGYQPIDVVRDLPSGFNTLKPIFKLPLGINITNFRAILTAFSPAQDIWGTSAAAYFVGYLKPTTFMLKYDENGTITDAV

B1: SARS VHH-72 (VHH)
VHH: QVQLQESGGGLVQAGGSLRLSCAASGRTFSEYAMGWFRQAPGKEREFVATISWSGGSTYYTDSVKGRFTISRDNAKNTVYLQMNSLKPDDTAVYYCAAAGLGTVVSEWDYDYDYWGQGTQVTVSS
B2: D72-16: h1-VHH72-GS-hIgG1hinge-hIgG1Fc (Fc fusion)
chain: EVQLVESGGGLVQPGGSLRLSCAASGRTFSEYAMGWFRQAPGKEREFVATISWSGGSTYYTDSVKGRFTISRDNAKNTVYLQMNSLRPEDTAVYYCAAAGLGTVVSEWDYDYDYWGQGTLVTVSSGS
notes: ExpiCHO
B3: D72-02: VHH72-GS-hIgG1hinge-hIgG1Fc (Fc fusion)
chain: B2 chain with E1Q, V5Q, P14A, R87K, E89D, L120Q

Assays:
SARS-CoV RBD [1] = target: T2, SARS-CoV RBD (SARS-CoV-1, UniProt P59594 320-502)
[2] = target: T3, 2019-nCoV RBD (purified recombinant) (SARS-CoV-2, UniProt P0DTC2 330-518)
[3] = target: T1, SARS-CoV NTD (N-terminal domain); assay: ELISA, coated antigen
[4] = target: SARS-CoV-1 spike, full length, on cells or on pseudotyped virus (SARS-CoV-1, UniProt P59594 14-1255); assay: cell-based or functional assay
SARS-CoV RBD [5] = target: T2, SARS-CoV RBD; assay: SPR, His-tagged VHH on NTA chip, RBD as analyte
[6] = target: T3, 2019-nCoV RBD (purified recombinant); assay: SPR, His-tagged VHH on NTA chip, RBD as analyte
[7] = target: SARS-CoV-2 RBD protein Avi-tag biotinylated (AcroBiosystems SPD-C82E9) (SARS-CoV-2, UniProt P0DTC2 330-518); assay: competition AlphaLISA; competitor human ACE2-mFc; on % inhibition: test concentration or dose not given here
[8] = target: T4, Mouse IgG1 Fc fused SARS-CoV-2 RBD (Sino Biological) (SARS-CoV-2; mouse, UniProt P0DTC2 330-518)
[9] = target: SARS-CoV-2 spike, full length, on cells or on pseudotyped/authentic virus (SARS-CoV-2, UniProt P0DTC2 14-1273); assay: cell-based or functional assay
[10] = target: T4, Mouse IgG1 Fc fused SARS-CoV-2 RBD …; assay: BLI, RBD-mFc on AMC tips, global 1:1 fit

| Binder | koff (SARS-CoV RBD [1]) [s⁻¹] | kon (SARS-CoV RBD [1]) [M⁻¹ s⁻¹] | koff [2] [s⁻¹] | kon [2] [M⁻¹ s⁻¹] | binding result [3] | IC50, pseudotyped lentivirus neutralization, Huh7.5 cells, luciferase [4] [µg/mL] | Kd (SARS-CoV RBD [5]) [nM] | Kd [6] [nM] | % inhibition [7] [%] | IC50 [7] [nM] | EC50 [8] [µg/mL] | IC50, plaque reduction neutralization, authentic SARS-CoV-2 [9] [µg/mL] | Kd [10] [nM] | koff [10] [s⁻¹] | kon [10] [M⁻¹ s⁻¹] |
| --- | --- | --- | --- | --- | --- | --- | --- | --- | --- | --- | --- | --- | --- | --- | --- |
| B1 | 0.0033 | 2.86e+06 | 3.13 | 8.09e+07 | no binding | 0.14 | 1.15 | 38.7 | 97 | 26.7 | – | – | – | – | – |
| B2 | – | – | – | – | – | – | – | – | – | – | 0.00965 | 0.94 | 0.102 | 0.000191 | 1.89e+06 |
| B3 | – | – | – | – | – | – | – | – | – | – | 0.00695 | 1.01 | 0.142 | 0.00026 | 1.83e+06 |
